First the molecules themselves.
B1: 194 (protein)
chain: STAIAQEGAAPAAILHPEKWPRPATQRLIDPAVEKRVDALLKQLSVEEKVGQVIQGDIGTITPEDLRKYPLGSILAGGDSGPNGDDRAPPKEWLDLADAFYRVSLEKRPGHTPIPVLFGIDAVHGHGNIGSATIFPHNIALGMTRDPELLRRIGEVTAEEMAATGIDWTFAPALSVVRDDRWGRTYEGFSEDPEIVASYSAAIVEGVQGKFGSKDFMAPGRIVASAKHFLADGGTDQGRDQGDARISEDELIRIHNPGYPPAIDAGVLTVMASFSSWQGIKHHGHKQLLTDVLKGQMGFNGFIVGDWNAHDQVPGCTKFNCPTSLIAGLDMYMAADSWKQLYENTLAQVKDGTIPMARLDDAVRRILRVKVLAGLFEKPAPKDRPGLPGLETLGSPEHRAVGREAVRKSLVLLKNDKGTLPLSPKARVLVAGDGADNIGKQSGGWTISWQGTGNRNDEFPGATSILGGIRDAVADAGGSVEFDVPGQYKTKPDVAIVVFGEEPYAEFQGDVETLEYQPDQKQDLALLKKLKDQGIPVVAVFLSGRPMWVNPELNASDAFVAAWLPGTEGGGVADVLFTDKAGKVQHDFAGKLSYSWPRTAAQTTVNRGDADYNPLFAYGYGLTYKDKSKVGTLPEESGVPAEARQNAGIYFRAGALRLPGRFL
B2: 209 (protein)
chain: B1 chain with P257A, M331L
B3: 196 (protein)
chain: B1 chain with P257A, P485A, G570P, T604P
B4: 199 (protein)
chain: B1 chain with S213P, G220V, P257A, P485A
B5: 198 (protein)
chain: B1 chain with S213P, P257A
B6: 204 (protein)
chain: B1 chain with Q26R, P257A, P485A, T604P
B7: 197 (protein)
chain: B1 chain with P257A, T604P
B8: 83 (protein)
chain: B1 chain with D79N, M143A, E159V, S198A, I222A, S225C, P257A, P485A, A525T
B9: 184 (protein)
chain: STAIAQEGAAPAAILHPEKWPRPATQRLIDPAVEKRVDALLKQLSVEEKVGQVIQGDIGTITPEDLRKYPLGSILAGGDSGPNGDDRAPPKEWLDLADAFYRVSLEKRPGHTPIPVLFGIDAVHGHGKIGSATIFPHNIALGATRSPELLRRIGEVTAQEMAATGIDWTFAPALSVVRDDRWGRTYEGFSEDPEIVAAYSPAIVEGVQGKYGSKDFMAVGRIVASAKHFLADGGTDQGRDQGDARISEDELIRIHNAGYPPAIDAGVLTVMASFSSWQGVKHHGHKQLLTDVLKGQMGFNGFIVGDWNAHDQVPGCTKFNCPTSLIAGLDMYMAADSWKQLYENTLAQVKDGTIPMARLDDAVRRILRVKVLAGLFEKPAPKDRPGLPGLETLGSPEHRAVGREAVRKSLVLLKNDKGTLPLSPKARVLVAGDGADNIGKQSGGWTISWQGTGNRNDEFPGATSILGGIRDAVADAGGSVEFDVAGQYKTKPDVAIVVFGEEPYAEFQGDVETLEYQPDQKQDLALLKKLKDQGIPVVAVFLSGRPMWVNPELNASDAFVAAWLPGTEGGGVADVLFTDKAGKVQHDFAGKLSYSWPRTAAQTTVNRGDADYNPLFAYGYGLTYKDKSKVGTLPEESGVPAEARQNAGIYFRAGALRLPGRFL
B10: 206 (protein)
chain: B1 chain with S213P, P257A, P485A
B11: 192 (protein)
chain: B1 chain with D79N, M143A, E159V, S198A, P257A, F274A, P485A
B12: 208 (protein)
chain: B1 chain with G59R, P257A, P485A
B13: 190 (protein)
chain: B1 chain with D79N, M143A, E159V, S198A, P257A, F274Q, P485A
B14: 193 (protein)
chain: B1 chain with D79N, M143A, E159V, S198A, P257A, I326S, P485A
B15: 91 (protein)
chain: B1 chain with E159V, S198A, P257A, P485A
B16: 189 (protein)
chain: B1 chain with D79N, M143A, E159V, S198A, P257A, F274K, P485A
B17: 87 (protein)
chain: B1 chain with E159V, F211Y, P257A, P485A
B18: 82 (protein)
chain: B9 chain with D79N, Q159V, P201A, Y211F, V219P, I222A, S225C, V280I
B19: 90 (protein)
chain: B9 chain with K128N, S146D, Q159V, P201A, V219P, V280I
B20: 203 (protein)
chain: B1 chain with P257A
B21: 84 (protein)
chain: B9 chain with D79N, S146D, Q159V, P201A, Y211F, V219P, I222A, V280I
B22: 93 (protein)
chain: B9 chain with D79N, K128N, S146D, Q159V, P201A, V219P, V280I
B23: 202 (protein)
chain: B1 chain with P257A, P485A, G570P
B24: 188 (protein)
chain: B9 chain with Q159V, A162T, A198S, P201A, V219P, V280I
B25: 207 (protein)
chain: B1 chain with P257A, P485A, T604P
B26: 92 (protein)
chain: B1 chain with D79N, E159V, S198A, P257A, P485A
B27: 201 (protein)
chain: B1 chain with P257A, P485A, A539V
B28: 88 (protein)
chain: B1 chain with M143A, E159V, S198A, P257A, P485A
B29: 185 (protein)
chain: B1 chain with D79N, M143A, E159Q, F211Y, I222A, S225C, P257A, P381S, P485A
B30: 95 (protein)
chain: B1 chain with D79N, M143A, E159Q, F211Y, P257A, P485A
B31: 200 (protein)
chain: B1 chain with P257A, P485A
B32: 186 (protein)
chain: B9 chain with I134N, S146D, P201A, Y211F, V219P, S225C, V280I
B33: 85 (protein)
chain: B9 chain with D85N, K128N, S146D, Q159V, P201A, V219P, V280I
B34: 86 (protein)
chain: B1 chain with D79N, E159V, P219M, P257A, P485A
B35: 191 (protein)
chain: B1 chain with D79N, M143A, E159V, S198A, P257A, F274A, D436N, P485A
B36: 205 (protein)
chain: B1 chain with P257A, S479A, P485A
B37: 89 (protein)
chain: B1 chain with M143A, E159V, P219V, P257A, P485A

The values below come from patent US8357523B2, “Beta-glucosidase variant enzymes and related polynucleotides” (Codexis, Inc., priority 2009, dated 2013).

Substitutions are numbered along the chain they refer to.

This data set in a line: High throughput cellobiose assay: fold improvement in cellobiase activity of CelA variants over a control enzyme (Tables 2A-2D, 3, 5, 6, 7). It counts as biochemical. The following applies: 3.3 g/l cellobiose, 55° C. and pH 6.0.
Turning to B1, the “Fold improvement over Control Variant No. 5 from Table 2A” value is on record as “++ (++ = 1.1 to 6 fold improvement over control Variant No. 2)”. Consider B2, for which the “Fold improvement over Control Variant No. 5 from Table 2A” value is listed as “++ (++ = 1.1 to 6 fold improvement over control Variant No. 2)”. Take B3: the “Fold improvement over Control Variant No. 5 from Table 2A” value is listed as “++ (++ = 1.1 to 6 fold improvement over control Variant No. 2)”. Regarding B4, the “Fold improvement over Control Variant No. 5 from Table 2A” value was “++ (++ = 1.1 to 6 fold improvement over control Variant No. 2)”. As to B5, the “Fold improvement over Control Variant No. 5 from Table 2A” value is on record as “++ (++ = 1.1 to 6 fold improvement over control Variant No. 2)”.

In the case of B6, the “Fold improvement over Control Variant No. 5 from Table 2A” value is on record as “++ (++ = 1.1 to 6 fold improvement over control Variant No. 2)”.

Regarding B7, the “Fold improvement over Control Variant No. 5 from Table 2A” value is recorded as “++ (++ = 1.1 to 6 fold improvement over control Variant No. 2)”. Take B8: the “Fold improvement over Control Variant No. 5 from Table 2A” value was “+++ (+++ = 6 to 13 fold improvement over control Variant No. 2)”. Regarding B9, the “Fold improvement over Control Variant No. 5 from Table 2A” value is “+++ (+++ = 6 to 13 fold improvement over control Variant No. 2)”.

As to B10, the “Fold improvement over Control Variant No. 5 from Table 2A” value was “++ (++ = 1.1 to 6 fold improvement over control Variant No. 2)”.

Regarding B11, the “Fold improvement over Control Variant No. 5 from Table 2A” value is “++ (++ = 1.1 to 6 fold improvement over control Variant No. 2)”. For B12, the “Fold improvement over Control Variant No. 5 from Table 2A” value is listed as “++ (++ = 1.1 to 6 fold improvement over control Variant No. 2)”.

Consider B13, for which the “Fold improvement over Control Variant No. 5 from Table 2A” value is recorded as “++ (++ = 1.1 to 6 fold improvement over control Variant No. 2)”. For B14, the “Fold improvement over Control Variant No. 5 from Table 2A” value is “++ (++ = 1.1 to 6 fold improvement over control Variant No. 2)”. Turning to B15, the “Fold improvement over Control Variant No. 5 from Table 2A” value is “+++ (+++ = 6 to 13 fold improvement over control Variant No. 2)”. For the molecule B16, the “Fold improvement over Control Variant No. 5 from Table 2A” value is reported as “++ (++ = 1.1 to 6 fold improvement over control Variant No. 2)”. In the case of B17, the “Fold improvement over Control Variant No. 5 from Table 2A” value is “+++ (+++ = 6 to 13 fold improvement over control Variant No. 2)”. On to B18, for which the “Fold improvement over Control Variant No. 5 from Table 2A” value is on record as “+++ (+++ = 6 to 13 fold improvement over control Variant No. 2)”. Regarding B19, the “Fold improvement over Control Variant No. 5 from Table 2A” value is “++ (++ = 1.1 to 6 fold improvement over control Variant No. 2)”. For B20, the “Fold improvement over Control Variant No. 5 from Table 2A” value is listed as “++ (++ = 1.1 to 6 fold improvement over control Variant No. 2)”.

As to B21, the “Fold improvement over Control Variant No. 5 from Table 2A” value is “+++ (+++ = 6 to 13 fold improvement over control Variant No. 2)”. Regarding B22, the “Fold improvement over Control Variant No. 5 from Table 2A” value is listed as “++ (++ = 1.1 to 6 fold improvement over control Variant No. 2)”. On to B23, for which the “Fold improvement over Control Variant No. 5 from Table 2A” value is on record as “++ (++ = 1.1 to 6 fold improvement over control Variant No. 2)”. In the case of B24, the “Fold improvement over Control Variant No. 5 from Table 2A” value is given as “++ (++ = 1.1 to 6 fold improvement over control Variant No. 2)”. B25: the “Fold improvement over Control Variant No. 5 from Table 2A” value is “++ (++ = 1.1 to 6 fold improvement over control Variant No. 2)”. With B26, the “Fold improvement over Control Variant No. 5 from Table 2A” value is “++ (++ = 1.1 to 6 fold improvement over control Variant No. 2)”. Take B27: the “Fold improvement over Control Variant No. 5 from Table 2A” value is recorded as “++ (++ = 1.1 to 6 fold improvement over control Variant No. 2)”. In the case of B28, the “Fold improvement over Control Variant No. 5 from Table 2A” value was “++ (++ = 1.1 to 6 fold improvement over control Variant No. 2)”.

As to B29, the “Fold improvement over Control Variant No. 5 from Table 2A” value is recorded as “++ (++ = 1.1 to 6 fold improvement over control Variant No. 2)”. Regarding B30, the “Fold improvement over Control Variant No. 5 from Table 2A” value is reported as “++ (++ = 1.1 to 6 fold improvement over control Variant No. 2)”. Take B31: the “Fold improvement over Control Variant No. 5 from Table 2A” value was “+++ (+++ = 6 to 13 fold improvement over control Variant No. 2)”.

With B32, the “Fold improvement over Control Variant No. 5 from Table 2A” value is on record as “+++ (+++ = 6 to 13 fold improvement over control Variant No. 2)”. As for B33, the entry is “++ (++ = 1.1 to 6 fold improvement over control Variant No. 2)”; as for B34, “++ (++ = 1.1 to 6 fold improvement over control Variant No. 2)”. Regarding B35, the “Fold improvement over Control Variant No. 5 from Table 2A” value was “++ (++ = 1.1 to 6 fold improvement over control Variant No. 2)”. B36: the “Fold improvement over Control Variant No. 5 from Table 2A” value was “++ (++ = 1.1 to 6 fold improvement over control Variant No. 2)”.

With B37, the “Fold improvement over Control Variant No. 5 from Table 2A” value is given as “++ (++ = 1.1 to 6 fold improvement over control Variant No. 2)”.
